Data on eight molecules can be found in patent US20240026037A1.

The target in assay [1] is Human GPA33 (recombinant protein, Novoprotein) (human) (UniProt Q99795). Kind of assay: SPR (Biacore), binding to GPA33 protein; IgG format.
The target of assay [2] is Human GPA33 on GPA33+ colorectal cancer cell lines (Colo 205, LS 174T, SW 1222) (human) (UniProt Q99795). Description: cell binding to SW1222 Luc cells; IgG format.
For assay [3] the target is unchanged. Kind of assay: cell binding to LS174T Luc cells; IgG format.

Sequence of Human GPA33 (recombinant protein, Novoprotein) (human) (Q99795 22-235 limits assumed): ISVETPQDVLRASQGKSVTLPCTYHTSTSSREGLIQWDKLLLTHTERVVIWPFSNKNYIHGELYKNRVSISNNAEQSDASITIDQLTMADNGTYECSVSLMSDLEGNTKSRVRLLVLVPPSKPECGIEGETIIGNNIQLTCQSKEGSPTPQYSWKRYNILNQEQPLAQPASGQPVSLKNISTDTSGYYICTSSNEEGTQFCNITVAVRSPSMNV
Sequence of Human GPA33 on GPA33+ colorectal cancer cell lines (Colo 205, LS 174T, SW 1222) (human) (Q99795 22-319 limits assumed): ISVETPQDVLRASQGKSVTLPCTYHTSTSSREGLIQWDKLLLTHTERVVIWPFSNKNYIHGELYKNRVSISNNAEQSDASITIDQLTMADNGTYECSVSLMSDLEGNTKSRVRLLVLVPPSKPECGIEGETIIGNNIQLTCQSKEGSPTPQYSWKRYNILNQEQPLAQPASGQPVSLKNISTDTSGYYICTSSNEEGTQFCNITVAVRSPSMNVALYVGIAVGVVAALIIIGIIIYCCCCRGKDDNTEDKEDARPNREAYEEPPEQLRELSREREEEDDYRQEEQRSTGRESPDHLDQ

B1: G3A_VK1+VH1 (antibody, IgG1, V domains shown, part only)
VH: EVQLVESGGGLVKPGGSLRLSCAASGFAFSTYDMSWVRQAPGKGLEWVSTISSGGSYTYYADSVKGRFTISRDNAKNSLYLQMNSLRAEDTAVYYCAPTTVVPFAYWGQGTLVTVSA
VL: DIQMTQSPSSLSASVGDRVTITCKASQNVRTVVAWYQQKPGKAPKRLIYLASNRHTGVPSRFSGSGSGTEFTLTISNLQPEDFATYYCLQHWSYPLTFGSGTKLEVK
modifications: IgG1 constant regions not given
As for B1, the Kd in assay [1] worked out at 0.87 nM. The values for the EC50 in assay [2] and in assay [3] were 1.51 µg/mL and 1.12 µg/mL, respectively.

B2: G3A_VK2+VH2 (antibody, IgG1, V domains shown, part only)
VH: EVQLVESGGGLVKPGGSLRLSCAASGFAFSTYDMSWVRQAPGKGLEWVATISSGGSYTYYLDSVKGRFTISRDSAKNSLYLQMNSLRAEDTAVYYCAPTTVVPFAYWGQGTLVTVSA
VL: DIQMTQSPSSLSTSVGDRVTITCKASQNVRTVVAWYQQKPGKAPKTLIYLASSLQSGVPSRFSGSGSGTEFTLTISNVQPEDFADYFCLQHWSYPLTFGSGTKLEVK
modifications: IgG1 constant regions
Regarding B2, the Kd in assay [1] stood at 9.54 nM.

B3: G3A_VK1+VH2 (antibody, IgG1, V domains shown, part only)
VH: EVQLVESGGGLVKPGGSLRLSCAASGFAFSTYDMSWVRQAPGKGLEWVATISSGGSYTYYLDSVKGRFTISRDSAKNSLYLQMNSLRAEDTAVYYCAPTTVVPFAYWGQGTLVTVSA
VL: DIQMTQSPSSLSASVGDRVTITCKASQNVRTVVAWYQQKPGKAPKRLIYLASNRHTGVPSRFSGSGSGTEFTLTISNLQPEDFATYYCLQHWSYPLTFGSGTKLEVK
modifications: IgG1 constant regions
B3: in assay [1], the dissociation constant Kd is 1.73 nM. Moreover, the EC50 in assay [2] came out at 0.991 µg/mL; in assay [3], 0.654 µg/mL.

B4: G3A_VK1+VH3 (antibody, IgG1, V domains shown, part only)
VH: EVQLVESGGGLVKPGGSLRLSCAASGFAFSTYDMSWVRQAPGKGLEWVATISSGGSYTYYADSVKGRFTISRDSAKNSLYLQMNSLRAEDTAVYYCAPTTVVPFAYWGQGTLVTVSA
VL: DIQMTQSPSSLSASVGDRVTITCKASQNVRTVVAWYQQKPGKAPKRLIYLASNRHTGVPSRFSGSGSGTEFTLTISNLQPEDFATYYCLQHWSYPLTFGSGTKLEVK
modifications: IgG1 constant regions
As for B4, the equilibrium dissociation constant (Kd) in assay [1] is 1.49 nM. Also, the EC50 in assay [2] turned out to be 1.32 µg/mL; in assay [3], 1.78 µg/mL.

B5: G3A_VK3+VH2 (antibody, IgG1, V domains shown, part only)
VH: EVQLVESGGGLVKPGGSLRLSCAASGFAFSTYDMSWVRQAPGKGLEWVATISSGGSYTYYLDSVKGRFTISRDSAKNSLYLQMNSLRAEDTAVYYCAPTTVVPFAYWGQGTLVTVSA
VL: DIQMTQSPSSLSTSVGDRVTITCKASQNVRTVVAWYQQKPGKAPKTLIYLASNRHSGVPSRFSGSGSGTEFTLTISNLQPEDFATYYCLQHWSYPLTFGSGTKLEVK
modifications: IgG1 constant regions not given
On to B5, for which the equilibrium dissociation constant (Kd) in assay [1] was determined as 0.241 nM. In addition, the EC50 in assay [2] was 0.383 µg/mL; in assay [3], 0.381 µg/mL.

B6: G3A_VK4+VH2 (antibody, IgG1, V domains shown, part only)
VH: EVQLVESGGGLVKPGGSLRLSCAASGFAFSTYDMSWVRQAPGKGLEWVATISSGGSYTYYLDSVKGRFTISRDSAKNSLYLQMNSLRAEDTAVYYCAPTTVVPFAYWGQGTLVTVSA
VL: DIQMTQSPSSLSASVGDRVTITCKASQNVRTVVAWYQQKPGKAPKTLIYLASNRHTGVPSRFSGSGSGTEFTLTISNLQPEDFATYYCLQHWSYPLTFGSGTKLEVK
modifications: IgG1 constant regions not given
For the molecule B6, in assay [1], the dissociation constant (Kd) stood at 0.229 nM. The EC50 in assay [2] is 0.314 µg/mL; in assay [3], 0.364 µg/mL.

B7: G3A_VK2+VH3 (antibody, IgG1, V domains shown, part only)
VH: EVQLVESGGGLVKPGGSLRLSCAASGFAFSTYDMSWVRQAPGKGLEWVATISSGGSYTYYADSVKGRFTISRDSAKNSLYLQMNSLRAEDTAVYYCAPTTVVPFAYWGQGTLVTVSA
VL: DIQMTQSPSSLSTSVGDRVTITCKASQNVRTVVAWYQQKPGKAPKTLIYLASSLQSGVPSRFSGSGSGTEFTLTISNVQPEDFADYFCLQHWSYPLTFGSGTKLEVK
modifications: IgG1 constant regions not given
For B7, the Kd in assay [1] was 8.39 nM. In assay [2], this molecule yielded a 50% effective concentration (EC50) of 1.89 µg/mL.

B8: G3A_VK2+VH1 (antibody, IgG1, V domains shown, part only)
VH: EVQLVESGGGLVKPGGSLRLSCAASGFAFSTYDMSWVRQAPGKGLEWVSTISSGGSYTYYADSVKGRFTISRDNAKNSLYLQMNSLRAEDTAVYYCAPTTVVPFAYWGQGTLVTVSA
VL: DIQMTQSPSSLSTSVGDRVTITCKASQNVRTVVAWYQQKPGKAPKTLIYLASSLQSGVPSRFSGSGSGTEFTLTISNVQPEDFADYFCLQHWSYPLTFGSGTKLEVK
modifications: IgG1 constant regions not given
With B8, in assay [1], the dissociation constant Kd stood at 5.8 nM. The same molecule showed an EC50 in assay [3] of 1.2 µg/mL.
